Source: publication PMC11893383 (Frontiers in Immunology, 2025)

Key:
Assay in all cases: ELISA
Settings in all cases: both partners purified
[1] = target: SARS-CoV-2 wild-type (WT) receptor-binding domain (RBD) (SARS-CoV-2, wild type (Wuhan-Hu-1 …, UniProt P0DTC2))
[2] = target: T1, angiotensin-converting enzyme-2 (ACE2), biotinylated (Homo sapiens, assumed, UniProt Q9BYF1, biotin)
T1 construct: also called host protein

[3] = target: SARS-CoV-2 wild-type (WT) N-terminal domain (NTD) of the spike protein (SARS-CoV-2, wild type (Wuhan-Hu-1 …, UniProt P0DTC2))

T1 sequence (Q9BYF1 18-805): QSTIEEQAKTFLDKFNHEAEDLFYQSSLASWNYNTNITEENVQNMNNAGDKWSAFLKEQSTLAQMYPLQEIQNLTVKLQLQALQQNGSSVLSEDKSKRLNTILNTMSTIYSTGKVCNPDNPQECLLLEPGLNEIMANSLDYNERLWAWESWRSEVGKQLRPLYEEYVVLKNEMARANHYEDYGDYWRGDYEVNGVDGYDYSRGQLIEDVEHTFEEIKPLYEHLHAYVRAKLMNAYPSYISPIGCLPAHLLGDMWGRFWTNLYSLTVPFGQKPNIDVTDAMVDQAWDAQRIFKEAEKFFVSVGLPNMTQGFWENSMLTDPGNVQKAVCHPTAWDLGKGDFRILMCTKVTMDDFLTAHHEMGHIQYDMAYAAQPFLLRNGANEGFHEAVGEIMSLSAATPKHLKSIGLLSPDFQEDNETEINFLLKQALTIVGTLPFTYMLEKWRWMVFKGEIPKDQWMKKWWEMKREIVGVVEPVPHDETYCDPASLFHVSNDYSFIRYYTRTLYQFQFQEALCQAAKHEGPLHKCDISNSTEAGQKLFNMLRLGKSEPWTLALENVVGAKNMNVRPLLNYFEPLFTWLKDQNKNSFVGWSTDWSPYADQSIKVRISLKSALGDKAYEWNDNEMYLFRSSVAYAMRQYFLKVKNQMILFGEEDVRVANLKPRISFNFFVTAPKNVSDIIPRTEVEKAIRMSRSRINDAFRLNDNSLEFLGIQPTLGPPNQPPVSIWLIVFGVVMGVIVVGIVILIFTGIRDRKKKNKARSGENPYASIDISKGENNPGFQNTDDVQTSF

Binder | binding result [1] | binding result [2] | binding result [3]
AB5-16 (antibody, V domains shown) VH: QALMVQSEAAVKKPGASVKVSCKATGDAFSNHYLHWLRQAPGQGLEWLGIINPGAGSTTYAQKFQGRLTVTTDTSTNTVYMELSSLRSDDTAVYYCARDGAFIPSSYYYGMDVWGQGTTVTVSS VL: EIVLTQSPGTLALSPGERATLSCRASQSVSSSYLAWYQQKPGQAPRLLIYGASSRATGVPDRFSGSGSGTDFTLTVSSLEPEDFAVYYCQQREAFGQGTKVEVK | binds | no binding | –
AB5-20 (antibody, V domains shown) VH: QVQLVESGGGVVQPGRSLRLSCTASGFTFRHYGLHWVRQAPGKGLEWVAVILYDGSDEDYRDSVKGRFTISRDNSKNTLYLQMNSLRPEDTAVYYCAKQSGPYCSGGNCYSGHFDYWGQGTPVSVSS VL: DIQMTQSPSSLSASVGDRVTITCQASQDISKSLSWYEQKPGKAPRLLIFEASNLETGVPSRFSGSGSGTSFSFTISSLQPEDFATYYCQQYDNVPLTFGGGTKVERK | binds | no binding | –
AB5-5 (antibody, V domains shown) VH: QISLKESGPTLVQPTQTLTLTCTFSGFSLSSSGVGVGWIRQPPGKALEWLALLYWNDDKRYSPSLRTRLTITKDSSKNQVVLTMTNMDPMDTATYYCAHPRQTTVTTVFGLYPRPAAFDVWGPGTMVTVSS VL: QSFLTQPPSVSGAPGQRVTISCTGSSSNIGAGYGVDWYQQLPGTAPKLLIYDNNNRPSGVPDRFSGSTSGTSASLAITGLHAEDEADYYCQSYDRSLSGSVVFGGGTKLTVL | no binding | – | no binding
AB5-12 (antibody, V domains shown) VH: QVQLQESGPGLVRPSQALSLTCTVSGGSISSEGYYWGWIRQHPGKGLEWIGYIYYTGNAYYNPSLQSRIDISVDTSANQFSLRLNSVTAADTAVYYCASDSFKGGFDSWGQGALVTVSS VL: EIVLTQSPTTLSLSPGERATLSCRASQTVSGSVAWYQQKPGQAPRLVIYDVSYRATGIPARFSGSGSGTDFTLTISSLEPEDFAVYYCQERRKAFGQGTTVEIK | no binding | – | no binding
AB6-17 (antibody, V domains shown) VH: QLQLQESGPGLVESSETLSLTCTVSSGSISRSTYYWGWIRQPPGKGMEWIGSISSGGSTYYNPSLNSRVTISIDTSKNQFSLKLRSVTAADTAVYYCARALQWPSPRIDYWAQGTLVTVSS VL: DIQMTQSPSSLSASVGDRVTITCRASQSISSYLNWYQHKPGKAPKLLIYAASSLESGVPSRFTGSGSGTDFTLTIDSLQPEDFATYYCQQSYSTPLFTFGPGTTVDIK | binds | no binding | –
